Reference: PMC3234886 (Biochemistry, 2011)
Where a chain is given by its changes, count along the chain named. Values belong to the molecule of their own block, whether it stands above or below them.

How the values were obtained:
[1] = molecular target: His6-Rna14 (wild type) (Saccharomyces cerevisiae) (UniProt P25298); assay: cross-linking
[2] = molecular target: His6-Rna14 (wild type) (Saccharomyces cerevisiae) (UniProt P25298); assay: SEC
[3] = molecular target: His6-Rna14 (wild type) (Saccharomyces cerevisiae) (UniProt P25298); assay: AUC
[4] = molecular target: T1, His6-Rna14-ES (R562E/Y563S) (Saccharomyces cerevisiae, UniProt P25298 1-677, R562E | Y563S); assay: cross-linking
T1 sequence (looked up): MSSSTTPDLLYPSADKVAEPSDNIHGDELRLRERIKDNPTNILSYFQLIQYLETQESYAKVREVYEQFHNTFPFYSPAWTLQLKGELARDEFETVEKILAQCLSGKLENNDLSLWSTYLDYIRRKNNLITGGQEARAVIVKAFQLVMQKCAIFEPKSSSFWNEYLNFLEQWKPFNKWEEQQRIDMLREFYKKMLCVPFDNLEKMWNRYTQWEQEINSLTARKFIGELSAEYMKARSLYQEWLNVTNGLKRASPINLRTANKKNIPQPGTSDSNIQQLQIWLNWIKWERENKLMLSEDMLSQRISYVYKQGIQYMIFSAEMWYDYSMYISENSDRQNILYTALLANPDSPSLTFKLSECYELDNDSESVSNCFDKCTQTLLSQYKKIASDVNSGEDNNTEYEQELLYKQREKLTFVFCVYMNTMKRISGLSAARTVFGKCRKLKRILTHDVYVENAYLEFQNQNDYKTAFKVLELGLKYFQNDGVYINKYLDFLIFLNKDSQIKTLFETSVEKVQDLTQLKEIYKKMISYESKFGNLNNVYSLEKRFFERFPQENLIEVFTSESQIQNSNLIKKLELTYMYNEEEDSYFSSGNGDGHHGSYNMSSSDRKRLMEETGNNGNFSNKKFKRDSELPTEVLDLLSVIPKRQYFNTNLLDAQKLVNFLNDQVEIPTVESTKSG

[5] = molecular target: T1, His6-Rna14-ES (R562E/Y563S); assay: SEC
cross-linking = molecular target: the molecule itself; assay: cross-linking
SEC = molecular target: the molecule itself; assay: SEC
[6] = molecular target: MBP-tagged Pcf11/Clp1 complex (yeast, UniProt P39081 1-626; Q08685 1-445); assay: pull-down
MBP-tagged Pcf11/Clp1 complex, sequence (P39081 whole entry, chain 1 of 2): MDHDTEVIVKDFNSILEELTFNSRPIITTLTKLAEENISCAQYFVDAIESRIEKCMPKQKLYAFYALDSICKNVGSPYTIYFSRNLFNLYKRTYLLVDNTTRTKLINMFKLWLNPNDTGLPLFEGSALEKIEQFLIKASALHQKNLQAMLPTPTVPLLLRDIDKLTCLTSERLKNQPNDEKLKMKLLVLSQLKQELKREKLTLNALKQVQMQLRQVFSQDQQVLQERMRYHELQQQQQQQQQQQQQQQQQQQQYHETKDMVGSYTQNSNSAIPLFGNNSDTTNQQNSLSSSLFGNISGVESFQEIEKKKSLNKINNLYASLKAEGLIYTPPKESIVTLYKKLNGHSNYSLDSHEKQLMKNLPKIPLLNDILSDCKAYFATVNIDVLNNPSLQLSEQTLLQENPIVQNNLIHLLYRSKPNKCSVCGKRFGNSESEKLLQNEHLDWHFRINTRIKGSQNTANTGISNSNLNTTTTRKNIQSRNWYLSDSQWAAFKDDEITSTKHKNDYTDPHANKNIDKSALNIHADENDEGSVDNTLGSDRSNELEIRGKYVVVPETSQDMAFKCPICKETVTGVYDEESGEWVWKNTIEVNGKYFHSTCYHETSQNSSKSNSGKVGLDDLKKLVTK
MBP-tagged Pcf11/Clp1 complex, sequence (Q08685 whole entry, chain 2 of 2): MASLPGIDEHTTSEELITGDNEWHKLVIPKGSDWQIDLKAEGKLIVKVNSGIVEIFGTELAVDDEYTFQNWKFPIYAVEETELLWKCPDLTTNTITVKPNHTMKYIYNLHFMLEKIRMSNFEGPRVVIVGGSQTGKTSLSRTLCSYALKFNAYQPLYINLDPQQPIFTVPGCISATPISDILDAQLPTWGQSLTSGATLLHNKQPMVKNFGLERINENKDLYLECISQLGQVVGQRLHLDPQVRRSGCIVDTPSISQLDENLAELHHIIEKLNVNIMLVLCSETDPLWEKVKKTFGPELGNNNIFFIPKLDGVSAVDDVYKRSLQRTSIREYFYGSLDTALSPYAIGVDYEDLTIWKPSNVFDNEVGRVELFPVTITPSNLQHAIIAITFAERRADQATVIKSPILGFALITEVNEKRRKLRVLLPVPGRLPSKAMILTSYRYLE

AUC = molecular target: the molecule itself; assay: AUC

B1: Rna15 (untagged, co-expressed with Rna14) (natural protein, Saccharomyces cerevisiae, UniProt P25299 1-296, looked up)
chain: MNRQSGVNAGVQNNPPSRVVYLGSIPYDQTEEQILDLCSNVGPVINLKMMFDPQTGRSKGYAFIEFRDLESSASAVRNLNGYQLGSRFLKCGYSSNSDISGVSQQQQQQYNNINGNNNNNGNNNNNSNGPDFQNSGNANFLSQKFPELPSGIDVNINMTTPAMMISSELAKKPKEVQLKFLQKFQEWTRAHPEDAVSLLELCPQLSFVTAELLLTNGICKVDDLIPLASRPQEEASATNNNSVNEVVDPAVLNKQKELLKQVLQLNDSQISILPDDERMAIWDLKQKALRGEFGAF
- stoichiometry N [4]: 1 Rna15 per Rna14-ES (1:1)
- ratio of Rna14 to Rna15 (intensity of stained bands, SEC peak fractions) [5]: 2.5

B2: His6-Rna14 (wild type) (natural protein, Saccharomyces cerevisiae, UniProt P25298 1-677, looked up)
chain: T1 sequence (looked up) with E562R, S563Y
- stoichiometry N (cross-linking): 2 copies of Rna14 in the complex
- stoichiometry N (SEC): 2

The next lines start with results.

- stoichiometry N (Rna15 per Rna14 (2:2)) [1]: 1
- ratio of Rna14 to Rna15 (intensity of stained bands, SEC peak fractions) [2]: 2.7
- stoichiometry N (Rna15 per Rna14 (2:2)) [3]: 1
Molecule: Rna15 (untagged, co-expressed with Rna14) (from UniProt P25299 1-296) (natural protein)

- stoichiometry N [6]: 1 Clp1/Pcf11 sub-complex per CF IA
B3: wild-type Rna14/Rna15 complex (2:2 heterotetramer) (complex, Saccharomyces cerevisiae)
chain 1: T1 sequence (looked up) with E562R, S563Y
chain 2: B1 chain
- Kd (AUC): 45 µM
